Our source for the Kd values is PMC8515945 (Microbiology Spectrum, 2021).

The experiment has as its target SARS-CoV-2 spike protein receptor-binding domain (residues 319 to 533), wild type (SARS-CoV-2, UniProt P0DTC2). Nature of the experiment: SPR. Conditions: both partners purified.

B1: nCoV617 (full-length recombinant human IgG1) (antibody, V domains shown)
VH: QVQLVESGGGVVQPGRSLRLSCAASGFTFSSYAMHWVRQAPGKGLEWVALISYDGSNKYADSVKGRFTISRDNSKNTLYLQMNSLRAEDTAVYYCARGLGLRFLEWPISSYWGQGTLVTVSS
VL: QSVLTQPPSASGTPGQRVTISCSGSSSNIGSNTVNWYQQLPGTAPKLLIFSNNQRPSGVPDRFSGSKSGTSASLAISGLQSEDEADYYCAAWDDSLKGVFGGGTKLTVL
notes: also called MAb nCoV617; NAb nCoV617
Molecule B1 came in with a Kd of 4.23 nM.
